Measured values: PMC5378477, “Crystal structure and dynamics of a lipid-induced potential desensitized-state of a pentameric ligand-gated channel” (eLife, 2017)

Molecular target: the molecule itself
Experiment: crystal structure; GLIC wt in DDM with 50 uM DHA and 0.5 mg/ml E. coli polar extract; sitting drop at 4 °C, sodium acetate pH 3.9-4.2, ammonium sulfate, PEG4000; 3.25 Å

B1: GLIC wt (natural protein)
chain: QDMVSPPPPIADEPLTVNTGIYLIECYSLDDKAETFKVNAFLSLSWKDRRLAFDPVRSGVRVKTYEPEAIWIPEIRFVNVENARDADVVDISVSPDGTVQYLERFSARVLSPLDFRRYPFDSQTLHIYLIVRSVDTRNIVLAVDLEKVGKNDDVFLTGWDIESFTAVVKPANFALEDRLESKLDYQLRISRQYFSYIPNIILPMLFILFISWTAFWSTSYEANVTLVVSTLIAHIAFNILVETNLPKTPYMTYTGAIIFMIYLFYFVAVIEVTVQHYLKVESQPARAASITRASRIAFPVVFLLANIILAFLFFGF
notes: GLIC, prokaryotic pH-gated pentameric ligand-gated ion channel; construct as in Hilf and Dutzler 2009 and Bocquet et al. 2009; residues 5-315 are named in the structure; Homopentamer; Crystallised with 50 uM DHA and E. coli polar lipids; also called GLIC-pH4-DHA (the structure solved here); source: E. coli C43, purified (amylose resin, SEC in DDM); not shown: MBP, N-terminal, cleaved
  stoichiometry N: 5
